Results taken from the RNAGym collection of RNA variant scans (doi:10.1021/acssynbio.7b00057).

B1: Pistol ribozyme (parent)
chain: GGGUCGUUGUUCCAUAAUCGCGUGGAUAUGGCACGCAAGUUUCUACCGGGCACCGUAAAUGUCCGACUGGAGCCGUUCGGGCGGCUAUAAACAGACCUCAGGCCCGAAGCGUGGCGGCACCUGCCGCCGGUGGUAAAAAAGAUCGGAAGAGCACACGUCU

Variants of: B1
Assay: aptazyme ON/OFF ratio, guanine; higher = stronger switching; co-transcriptional cleavage with and without guanine

**Q.** For GGGUCGGGUCGCCAUAAUCGCGUGGAUAUGGCACGCAAGUUUCUACCGGGCACCGUAAAUGUCCGACUGGAGCCGUUCGGGCGGCUAUAAACAGACCUCAGGCCCGAAGCGUGGCGGCACCUGCCGCCGGUGGUAAAAAAGAUCGGAAGAGCACACGUCU, which “aptazyme ON/OFF ratio” value is on record?
**A.** Its value is 1.28.

**Q.** Which “aptazyme ON/OFF ratio” value does the source give for GGGUCGGGUCGCGAUAAUCGCGUGGAUAUGGCACGCAAGUUUCUACCGGGCACCGUAAAUGUCCGACUGGAGCCGUUCGGGCGGCUAUAAACAGACCUCAGGCCCGAAGCGUGGCGGCACCUGCCGCCGGUGGUAAAAAAGAUCGGAAGAGCACACGUCU here?
**A.** Its value is 1.21.

**Q.** For GGGUCGGGUCGCAAUAAUCGCGUGGAUAUGGCACGCAAGUUUCUACCGGGCACCGUAAAUGUCCGACUGGAGCCGUUCGGGCGGCUAUAAACAGACCUCAGGCCCGAAGCGUGGCGGCACCUGCCGCCGGUGGUAAAAAAGAUCGGAAGAGCACACGUCU, which “aptazyme ON/OFF ratio” value is on record?
**A.** Its value is 1.22.

**Q.** With GGGUCGGGUCGCUAUAAUCGCGUGGAUAUGGCACGCAAGUUUCUACCGGGCACCGUAAAUGUCCGACUGGAGCCGUUCGGGCGGCUAUAAACAGACCUCAGGCCCGAAGCGUGGCGGCACCUGCCGCCGGUGGUAAAAAAGAUCGGAAGAGCACACGUCU as the variant, how does the “aptazyme ON/OFF ratio” value read?
**A.** The value was 1.28.

**Q.** Which “aptazyme ON/OFF ratio” value does the source give for GGGUCGGGUCGUUAUAAUCGCGUGGAUAUGGCACGCAAGUUUCUACCGGGCACCGUAAAUGUCCGACUGGAGCCGUUCGGGCGGCUAUAAACAGACCUCAGGCCCGAAGCGUGGCGGCACCUGCCGCCGGUGGUAAAAAAGAUCGGAAGAGCACACGUCU here?
**A.** The value was 1.4.

**Q.** Which “aptazyme ON/OFF ratio” value does the source give for GGGUCGGGUCGUGAUAAUCGCGUGGAUAUGGCACGCAAGUUUCUACCGGGCACCGUAAAUGUCCGACUGGAGCCGUUCGGGCGGCUAUAAACAGACCUCAGGCCCGAAGCGUGGCGGCACCUGCCGCCGGUGGUAAAAAAGAUCGGAAGAGCACACGUCU here?
**A.** Its value is 1.24.

**Q.** Which “aptazyme ON/OFF ratio” value does the source give for GGGUCGGGUCGUAAUAAUCGCGUGGAUAUGGCACGCAAGUUUCUACCGGGCACCGUAAAUGUCCGACUGGAGCCGUUCGGGCGGCUAUAAACAGACCUCAGGCCCGAAGCGUGGCGGCACCUGCCGCCGGUGGUAAAAAAGAUCGGAAGAGCACACGUCU here?
**A.** The value was 1.23.

**Q.** With GGGUCGGGUCGGCAUAAUCGCGUGGAUAUGGCACGCAAGUUUCUACCGGGCACCGUAAAUGUCCGACUGGAGCCGUUCGGGCGGCUAUAAACAGACCUCAGGCCCGAAGCGUGGCGGCACCUGCCGCCGGUGGUAAAAAAGAUCGGAAGAGCACACGUCU as the variant, how does the “aptazyme ON/OFF ratio” value read?
**A.** Its value is 1.39.

**Q.** Which “aptazyme ON/OFF ratio” value does the source give for GGGUCGGGUCGUCAUAAUCGCGUGGAUAUGGCACGCAAGUUUCUACCGGGCACCGUAAAUGUCCGACUGGAGCCGUUCGGGCGGCUAUAAACAGACCUCAGGCCCGAAGCGUGGCGGCACCUGCCGCCGGUGGUAAAAAAGAUCGGAAGAGCACACGUCU here?
**A.** Its value is 1.22.

**Q.** For GGGUCGGGUCGACAUAAUCGCGUGGAUAUGGCACGCAAGUUUCUACCGGGCACCGUAAAUGUCCGACUGGAGCCGUUCGGGCGGCUAUAAACAGACCUCAGGCCCGAAGCGUGGCGGCACCUGCCGCCGGUGGUAAAAAAGAUCGGAAGAGCACACGUCU, which “aptazyme ON/OFF ratio” value is on record?
**A.** Its value is 1.32.

**Q.** With GGGUCGGGUCGGAAUAAUCGCGUGGAUAUGGCACGCAAGUUUCUACCGGGCACCGUAAAUGUCCGACUGGAGCCGUUCGGGCGGCUAUAAACAGACCUCAGGCCCGAAGCGUGGCGGCACCUGCCGCCGGUGGUAAAAAAGAUCGGAAGAGCACACGUCU as the variant, how does the “aptazyme ON/OFF ratio” value read?
**A.** Its value is 1.16.

**Q.** For GGGUCGGGUCGGGAUAAUCGCGUGGAUAUGGCACGCAAGUUUCUACCGGGCACCGUAAAUGUCCGACUGGAGCCGUUCGGGCGGCUAUAAACAGACCUCAGGCCCGAAGCGUGGCGGCACCUGCCGCCGGUGGUAAAAAAGAUCGGAAGAGCACACGUCU, which “aptazyme ON/OFF ratio” value is on record?
**A.** Its value is 1.15.

**Q.** Which “aptazyme ON/OFF ratio” value does the source give for GGGUCGGGUCGGUAUAAUCGCGUGGAUAUGGCACGCAAGUUUCUACCGGGCACCGUAAAUGUCCGACUGGAGCCGUUCGGGCGGCUAUAAACAGACCUCAGGCCCGAAGCGUGGCGGCACCUGCCGCCGGUGGUAAAAAAGAUCGGAAGAGCACACGUCU here?
**A.** Its value is 1.26.

**Q.** With GGGUCGGGUCGAGAUAAUCGCGUGGAUAUGGCACGCAAGUUUCUACCGGGCACCGUAAAUGUCCGACUGGAGCCGUUCGGGCGGCUAUAAACAGACCUCAGGCCCGAAGCGUGGCGGCACCUGCCGCCGGUGGUAAAAAAGAUCGGAAGAGCACACGUCU as the variant, how does the “aptazyme ON/OFF ratio” value read?
**A.** Its value is 1.15.

**Q.** For GGGUCGGGUCGAUAUAAUCGCGUGGAUAUGGCACGCAAGUUUCUACCGGGCACCGUAAAUGUCCGACUGGAGCCGUUCGGGCGGCUAUAAACAGACCUCAGGCCCGAAGCGUGGCGGCACCUGCCGCCGGUGGUAAAAAAGAUCGGAAGAGCACACGUCU, which “aptazyme ON/OFF ratio” value is on record?
**A.** The value was 1.28.

**Q.** With GGGUCGGGUCGAAAUAAUCGCGUGGAUAUGGCACGCAAGUUUCUACCGGGCACCGUAAAUGUCCGACUGGAGCCGUUCGGGCGGCUAUAAACAGACCUCAGGCCCGAAGCGUGGCGGCACCUGCCGCCGGUGGUAAAAAAGAUCGGAAGAGCACACGUCU as the variant, how does the “aptazyme ON/OFF ratio” value read?
**A.** Its value is 1.12.

**Q.** With GGGUCGGGUCCCUAUAAUCGCGUGGAUAUGGCACGCAAGUUUCUACCGGGCACCGUAAAUGUCCGACUGGAGCCGUUCGGGCGGCUAUAAACAGACCUCAGGCCCGAAGCGUGGCGGCACCUGCCGCCGGUGGUAAAAAAGAUCGGAAGAGCACACGUCU as the variant, how does the “aptazyme ON/OFF ratio” value read?
**A.** The value was 1.37.

**Q.** For GGGUCGGGUCCCGAUAAUCGCGUGGAUAUGGCACGCAAGUUUCUACCGGGCACCGUAAAUGUCCGACUGGAGCCGUUCGGGCGGCUAUAAACAGACCUCAGGCCCGAAGCGUGGCGGCACCUGCCGCCGGUGGUAAAAAAGAUCGGAAGAGCACACGUCU, which “aptazyme ON/OFF ratio” value is on record?
**A.** The value was 1.21.
